US20230242658A1

How the values were obtained:
[1] = target: human 4-1BB on CHO-K1 cells (human) (UniProt Q07011); test: FACS; FIG. 25E
[2] = target: human 4-1BB on CHO-K1 cells (human) (UniProt Q07011); test: FACS; FIG. 11I
[3] = target: human 4-1BB on CHO-K1 cells (human) (UniProt Q07011); test: FACS blocking of 4-1BBL; FIG. 14H
[4] = target: human 4-1BB on CHO-K1 cells (human) (UniProt Q07011); test: FACS; FIG. 25B
[5] = target: human 4-1BB on CHO-K1 cells (human) (UniProt Q07011); test: FACS; FIG. 11H
[6] = target: human 4-1BB on CHO-K1 cells (human) (UniProt Q07011); test: FACS blocking of 4-1BBL; FIG. 14F
[7] = target: human 4-1BB on CHO-K1 cells (human) (UniProt Q07011); test: FACS; FIG. 11J
[8] = target: human 4-1BB on CHO-K1 cells (human) (UniProt Q07011); test: FACS; FIG. 25A
[9] = target: human 4-1BB on CHO-K1 cells (human) (UniProt Q07011); test: FACS blocking of 4-1BBL; FIG. 14G
[10] = target: human 4-1BB on CHO-K1 cells (human) (UniProt Q07011); test: FACS; FIG. 25C
[11] = target: human 4-1BB on CHO-K1 cells (human) (UniProt Q07011); test: FACS; FIG. 25D

Chain of human 4-1BB on CHO-K1 cells (human) (Q07011 24-255): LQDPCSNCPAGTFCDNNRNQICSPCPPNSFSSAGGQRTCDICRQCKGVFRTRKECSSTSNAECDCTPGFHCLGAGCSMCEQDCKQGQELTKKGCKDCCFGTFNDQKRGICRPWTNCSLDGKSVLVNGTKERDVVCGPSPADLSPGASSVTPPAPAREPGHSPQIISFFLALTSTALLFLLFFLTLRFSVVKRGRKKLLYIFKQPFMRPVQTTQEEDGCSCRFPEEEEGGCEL

With Urelumab the EC50 [1] was 0.235 nM, the EC50 [2] was 0.712 nM and the IC50 [3] was 0.232 nM. The EC50 [4] was 0.347 nM, the EC50 [5] was 0.683 nM and the IC50 [6] was 1.27 nM. The EC50 [7] was 0.486 nM, the EC50 [8] was 1.01 nM and the IC50 [9] was 0.447 nM. For the same substance, the EC50 [10] was 0.519 nM and the EC50 [11] was 0.653 nM.
